According to patent publication US20170233703A1:

Columns and labels:
[1] = molecular target: IntC:dCas9C-VRER:VPR split at residue 713 (two-output sensory switch, FIG. 27) (Streptococcus pyogenes) (UniProt Q99ZW2)
[2] = molecular target: IntC:dCas9C:VPR split at residue 713 (dCas9 from residue 714) (Streptococcus pyogenes) (UniProt Q99ZW2)
[3] = molecular target: dCas9M:IntN containing the residues from 714 to 1153 (Streptococcus pyogenes) (UniProt Q99ZW2)
[4] = molecular target: IntC:dCas9C:Suntag containing the residues from 1154 to 1368 (Streptococcus pyogenes) (UniProt Q99ZW2)
[5] = molecular target: C-terminal dCas9 constituent split at residue 1153 fused to Suntag (Streptococcus pyogenes) (UniProt Q99ZW2)

dCas9N:IntN split at residue 713 (from UniProt Q99ZW2)
mKate2 expression, two-input two-output sensory switch set by shRNA-FF5 and shRNA-FF4 [1]: 20 fold
EYFP expression, two-input two-output sensory switch set by shRNA-FF5 and shRNA-FF4 [2]: 20 fold

dCas9N containing dCas9 residues from 1 to 713, without intein fusion (from UniProt Q99ZW2)
TagBFP expression, three-input logic AND circuit of three split-dCas9 fragments, HEK293 cells [3]: 110 fold

dCas9M:IntN containing the residues from 714 to 1153 (from UniProt Q99ZW2)
TagBFP expression, three-input logic AND circuit of three split-dCas9 fragments, HEK293 cells [4]: 110 fold

N-terminal dCas9 constituent split at residue 1153 (intein fusion not stated at the place of the experiment) (from UniProt Q99ZW2)
TagBFP expression, three-input logic AND circuit (two split-dCas9 constituents and rapalog), HEK293 cells [5]: 140 fold
